In the supplement of paper PMC9428881:
± gives the standard error.

Assay: background-corrected fluorescence of 3'-dye-labeled ssDNA relative to brightest sequence (3'-GCGCG) (fraction); higher = brighter dye fluorescence (less quenching)
In short: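 By light-directed phosphoramidite synthesis, single-stranded DNA ending in a 3' Cy3 or Cy5 dye beside each of 1024 permuted pentamers was built on glass slides. Scanning at 532 or 635 nm took place before and after overnight ethylenediamine/ethanol deprotection. Data are means of 10 features per array over at least 3 syntheses. Fluorescence is corrected for unlabeled-oligo background and scaled to the brightest sequence.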

| Sequence | background-corrected fluorescence (dye: Cy3 (3' terminal)) | background-corrected fluorescence (dye: Cy5 (3' terminal)) |
| --- | --- | --- |
| TTTTTGCATCATGCGCATCATTTTTTTTTTTTTTTTGATG [GTAGT] | 0.53 ± 0.0055 | 0.409 ± 0.037 |
| TTTTTTCATCATGCTGATGATTTTTTTTTTTTTTTGGACC [CCAGG] | 0.446 ± 0.022 | 0.317 ± 0.023 |
| TTTTTTGAGCAGCAGCAGCATTTTTTTTTTTTTTTCTTTT | 0.494 ± 0.021 | 0.357 ± 0.035 |
| TTTTTTGATCAGCATGCTGATTTTTTTTTTTTTTTCGTAC | 0.49 ± 0.01 | 0.376 ± 0.053 |
| TTTTTTCATGCTGCGCATGATTTTTTTTTTTTTTTGAATC [CTAAG] | 0.433 ± 0.031 | 0.311 ± 0.025 |
| TTTTTTGATCATGATGCGCATTTTTTTTTTTTTTTCGCAT [TACGC] | 0.517 ± 0.0084 | 0.395 ± 0.021 |
| TTTTTTGATCAGCATGATCATTTTTTTTTTTTTTTCGTCG [GCTGC] | 0.609 ± 0.03 | 0.463 ± 0.024 |
| TTTTTTGCGCATCATGCTGATTTTTTTTTTTTTTTATGAC [CAGTA] | 0.469 ± 0.0096 | 0.376 ± 0.02 |
| TTTTTTGAGCAGCATCATGCTTTTTTTTTTTTTTTCTTGA [AGTTC] | 0.615 ± 0.027 | 0.53 ± 0.07 |
| TTTTTGCATCATCATGATCATTTTTTTTTTTTTTTTGGCG [GCGGT] | 0.631 ± 0.026 | 0.516 ± 0.065 |
| TTTTTTGCTGCTCATGATGCTTTTTTTTTTTTTTTAAGCA [ACGAA] | 0.571 ± 0.014 | 0.451 ± 0.026 |
| TTTTTGCATGATGATCATGATTTTTTTTTTTTTTTTCCGC [CGCCT] | 0.504 ± 0.022 | 0.412 ± 0.025 |
| TTTTTTGCGCATCAGCAGCATTTTTTTTTTTTTTTATGTT [TTGTA] | 0.575 ± 0.028 | 0.432 ± 0.035 |
| TTTTTGCAGCATGCGCAGCATTTTTTTTTTTTTTTTTATT | 0.5242 ± 0.0046 | 0.403 ± 0.029 |
| TTTTTGCAGCATCATCATCATTTTTTTTTTTTTTTTTGGG [GGGTT] | 0.661 ± 0.029 | 0.549 ± 0.029 |
| TTTTTTCATGAGCATGAGCATTTTTTTTTTTTTTTGCTCT [TCTCG] | 0.497 ± 0.015 | 0.337 ± 0.023 |
| TTTTTGCAGCAGCATGATGCTTTTTTTTTTTTTTTTTTCA [ACTTT] | 0.482 ± 0.032 | 0.373 ± 0.046 |
| TTTTTGCAGCATCAGCATGATTTTTTTTTTTTTTTTTGTC [CTGTT] | 0.407 ± 0.013 | 0.345 ± 0.024 |
| TTTTTTCATCAGCATGAGCATTTTTTTTTTTTTTTGGTCT [TCTGG] | 0.486 ± 0.026 | 0.391 ± 0.031 |
| TTTTTTCATGCTGCGCATCATTTTTTTTTTTTTTTGAATG [GTAAG] | 0.489 ± 0.022 | 0.367 ± 0.029 |
| TTTTTTGATGATCATCATCATTTTTTTTTTTTTTTCCGGG [GGGCC] | 0.731 ± 0.012 | 0.655 ± 0.076 |
| TTTTTTGATGAGCAGCATGCTTTTTTTTTTTTTTTCCTTA [ATTCC] | 0.513 ± 0.023 | 0.369 ± 0.029 |
| TTTTTTGCTCAGCATGCTCATTTTTTTTTTTTTTTAGTAG [GATGA] | 0.605 ± 0.054 | 0.46 ± 0.032 |
| TTTTTTGAGCATCATCATGCTTTTTTTTTTTTTTTCTGGA [AGGTC] | 0.69 ± 0.023 | 0.605 ± 0.047 |
| TTTTTTGATGCTGCTGCTGATTTTTTTTTTTTTTTCAAAC | 0.428 ± 0.03 | 0.323 ± 0.031 |
| TTTTTTGCTCATCATCATGCTTTTTTTTTTTTTTTAGGGA | 0.707 ± 0.036 | 0.642 ± 0.037 |
| TTTTTTCAGCATCATGCTGCTTTTTTTTTTTTTTTGTGAA [AAGTG] | 0.607 ± 0.023 | 0.511 ± 0.032 |
| TTTTTTCATGAGCATCAGCATTTTTTTTTTTTTTTGCTGT [TGTCG] | 0.594 ± 0.011 | 0.458 ± 0.038 |
